Results on 5 molecules are retold here after paper PMC5700813, “A recombinant BBSome core complex and how it interacts with ciliary cargo” (eLife, 2017).

To fix the notation:
B2: BBS1 (aa1-430) (domain or fragment, human, UniProt Q8NFJ9-1 1-430, looked up)
chain: MAAASSSDSDACGAESNEANSKWLDAHYDPMANIHTFSACLALADLHGDGEYKLVVGDLGPGGQQPRLKVLKGPLVMTESPLPALPAAAATFLMEQHEPRTPALALASGPCVYVYKNLRPYFKFSLPQLPPNPLEQDLWNQAKEDRIDPLTLKEMLESIRETAEEPLSIQSLRFLQLELSEMEAFVNQHKSNSIKRQTVITTMTTLKKNLADEDAVSCLVLGTENKELLVLDPEAFTILAKMSLPSVPVFLEVSGQFDVEFRLAAACRNGNIYILRRDSKHPKYCIELSAQPVGLIRVHKVLVVGSTQDSLHGFTHKGKKLWTVQMPAAILTMNLLEQHSRGLQAVMAGLANGEVRIYRDKALLNVIHTPDAVTSLCFGRYGREDNTLIMTTRGGGLIIKILKRTAVFVEGGSEVGPPPAQAMKLNVPRK
notes: BBS1, human, residues 1-430; also called BBS1 ß-propeller domain; truncated BBS1 subunit; source: Hi5 insect cells (baculovirus), purified

Read-outs that look alike come from different tables or passages of the source. Ends that are not written are not given here. fluorescein = fluorescein, N-terminal fluorescent label

Series [1] deals with T1, 5HT6 CT (human (from the printed UniProt accession)). Nature of the series: fluorescence polarisation; fluorescein-labelled peptide or Smo fragment (0.1–1 µM) titrated with core BBSome or BBS1 (aa1-430); quadratic binding fit. On the technique in general: Fluorescence polarisation rises when a labelled molecule tumbles more slowly, as on binding a larger partner.
In series [2] the target is GPR161 3ICL (human (from the printed UniProt accession)). Described as above.
The target of series [3] is GPR161 CT1 (human (from the printed UniProt accession)). Described as above.
In series [4] the target is GPR161 CT2 (human (from the printed UniProt accession)). The description is as above.
The target of series [5] is MCH 3ICL (human (from the printed UniProt accession)). The series is described as above.
Series [6] concerns the target NMU 3ICL1 (human (from the printed UniProt accession)). Described as above.
The target in series [7] is NMU 3ICL2 (human (from the printed UniProt accession)). The description is as above.
In series [8] the target is SSTR3 3ICL (human (from the printed UniProt accession)). The series is described as above.
Series [9] has as its target SSTR3 CT1 (human (from the printed UniProt accession)). The series is described as above.
The target of series [10] is SSTR3 CT2 (human (from the printed UniProt accession)). The series is described as above.
In series [11] the target is SSTR3 CT3 (human (from the printed UniProt accession)). Described as above.
Series [12] addresses SSTR3 CT4 (human (from the printed UniProt accession)). Described as above.
In series [13] the target is SSTR3 CT5 (human (from the printed UniProt accession)). The description is as above.
In series [14] the target is SSTR3 CT6 (human (from the printed UniProt accession)). The description is as above.
Series [15] has as its target SSTR3 CT7 (human (from the printed UniProt accession)). Described as above.
Series [16] has as its target SSTR3 CT8 (human (from the printed UniProt accession)). The series is described as above.
For series [17], the target named is SSTR3 CT9 (human (from the printed UniProt accession)). Described as above.
The target in series [18] is Smo CT1 (human (from the printed UniProt accession)). Described as above.
Series [19] has as its target Smo CT2 (human (from the printed UniProt accession)). Described as above.
Series [20] has as its target Smo CT3 (human (from the printed UniProt accession)). The series is described as above.
For series [21], the target named is Smo CT4 (human (from the printed UniProt accession)). Described as above.
Series [22] concerns the target Smo CT5 (human (from the printed UniProt accession)). The description is as above.
Series [23] deals with Smo CT6 (human (from the printed UniProt accession)). The series is described as above.
The target of series [24] is Smo CT7 (human (from the printed UniProt accession)). The series is described as above.
The target of series [25] is Smo CT8 (human (from the printed UniProt accession)). The description is as above.
In series [26] the target is fluoresceine-labeled Smo (R546-L665) (human (from the printed UniProt accession)) (UniProt Q99835). The series is described as above.
Series [27] has as its target T1, 5HT6 CT (human). The series is described as above. The source holds these as a separate data set.
The target of series [28] is B2. The description is as above. Conditions: both partners purified.
In series [29] the target is T2, SSTR3 CT2 (human (from the printed UniProt …, fluorescein on the N-terminus)).
T2 construct: SSTR3, three residues of the 7th transmembrane region and 21 of the C-terminus; limits worked out from the printed RRVR 333-336; source: synthetic peptide, bought: Proteogenix
T2 peptide: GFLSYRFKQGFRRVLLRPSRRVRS
Described as above. Conditions: both partners purified.

Series [30] deals with the molecule itself. Description: SEC; samples purified by affinity chromatography and gel filtration; 2.5–10 µg of the peak fraction on a Superdex 200 5/20 column; elution volume against standard proteins.
Series [31] concerns the molecule itself. Nature of the series: SEC; full length BBS9 at high concentrations; at lower concentrations the single peak shifts to lower molecular weight (fast equilibrium between monomer and dimer). In general terms: SEC sorts molecules by how far they enter the pores of the column.

T1 sequence (P50406 325-344): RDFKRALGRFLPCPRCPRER
Sequence of fluoresceine-labeled Smo (R546-L665) (human (Q99835 546-665): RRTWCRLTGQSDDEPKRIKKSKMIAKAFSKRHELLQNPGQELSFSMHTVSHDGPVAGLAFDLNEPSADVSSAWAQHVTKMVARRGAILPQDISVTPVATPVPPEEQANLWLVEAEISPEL
Sequence of GPR161 CT1 (human (Q8N6U8 328-354): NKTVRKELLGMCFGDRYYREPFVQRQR
Sequence of NMU 3ICL2 (human (Q9HB89 271-294): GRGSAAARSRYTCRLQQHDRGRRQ
Sequence of GPR161 CT2 (human (Q8N6U8 489-510): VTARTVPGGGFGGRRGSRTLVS
Sequence of MCH 3ICL (human (peptide, as listed by the source): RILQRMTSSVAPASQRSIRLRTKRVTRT
Sequence of Smo CT3 (human (Q99835 541-577): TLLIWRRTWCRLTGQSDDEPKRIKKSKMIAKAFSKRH
Sequence of NMU 3ICL1 (human (peptide, as listed by the source): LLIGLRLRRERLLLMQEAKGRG

For the molecule “6mer BBSome core complex (BBS1, 4, 5, 8, 9 and 18) (from UniProt Q8NFJ9-1 1-593; Q96RK4-1 1-519; Q8N3I7-1 1-341; Q8TAM2 1-541; Q3SYG4-1 1-887; A8MTZ0-1 1-92)”, the Kd (in general, the free concentration of one partner at which half of the binding sites on the other are occupied at equilibrium, for simple one-to-one binding) in series [1] is 44.2 µM; in series [2], 6.3 µM; in series [3], 67.4 µM; in [4] it was over 100 µM; in series [5], 68.8 µM; in series [6] it was 18.1 µM. Moreover, the Kd in [7] was over 100 µM; in series [8] it was 12.8 µM; in series [9], 22.1 µM; in series [10], 0.11 µM; in series [11], 1.1 µM; in [12], 0.4 µM. For the same molecule, the Kd in series [13] worked out at 1.5 µM; in series [14] it was 4.5 µM; in series [15], 1 µM; in series [16], 11 µM; in series [17] it was 4.7 µM; in series [18], 1.8 µM. For the same molecule, the Kd in [19] was over 100 µM; in [20] it was 1.4 µM; in series [21], 1.1 µM; in [22], 9.7 µM; in [23] it was 12.5 µM; in series [24], 14.3 µM. The Kd in series [25] was 6.8 µM; in series [26] it was 36.1 µM; in series [27] it was over 50 µM.

B1: SSTR3 3ICL (peptide)
peptide: fluorescein-VKVRSAGRRVWAPSCQRRRRSERRVTRM
notes: SSTR3, third intracellular loop; source: synthetic peptide, bought: Proteogenix
In the case of B1, in series [28], the binding result is “binds”.
In the case of B2, in series [29], the “fold lower affinity than to the core BBSome” value is about 100 fold.

B3: BBS9 C-terminal part (residues 363–887) (domain or fragment, human, UniProt Q3SYG4-1 363-887, looked up)
chain: PSLFQAPNVQSRELNYDELDVEMKELQKIIKDVNKSQGVWPMTEREDDLNVSVVVSPNFDSVSQATDVEVGTDLVPSVTVKVTLQNRVILQKAKLSVYVQPPLELTCDQFTFEFMTPDLTRTVSFSVYLKRSYTPSELEGNAVVSYSRPTDRNPDGIPRVIQCKFRLPLKLICLPGQPSKTASHKITIDTNKSPVSLLSLFPGFASQSDDDQVNVMGFHFLGGARITVLASKTSQRYRIQSEQFEDLWLITNELILRLQEYFEKQGVKDFACSFSGSIPLQEYFELIDHHFELRINGEKLEELLSERAVQFRAIQRRLLARFKDKTPAPLQHLDTLLDGTYKQVIALADAVEENQGNLFQSFTRLKSATHLVILLIALWQKLSADQVAILEAAFLPLQEDTQELGWEETVDAAISHLLKTCLSKSSKEQALNLNSQLNIPKDTSQLKKHITLLCDRLSKGGRLCLSTDAAAPQTMVMPGGCTTIPESDLEERSVEQDSTELFTNHRHLTAETPRPEVSPLQGVSE
notes: BBS9, human, residues 363-887 (GAE, platform and alpha-helical domains); also called C-terminal domain of BBS9; C-terminal appendage part; source: Hi5 insect cells (baculovirus); alone, purified, or co-expressed with BBS1
Take B3: the stoichiometry N – broadly, a count of units in the complex or per binding partner – in [30] turned out to be 2.

B4: BBS9 (full length) (natural protein, human, UniProt Q3SYG4-1 1-887, looked up)
chain: MSLFKARDWWSTILGDKEEFDQGCLCLANVDNSGNGQDKIIVGSFMGYLRIFSPHPAKTGDGAQAEDLLLEVDLRDPVLQVEVGKFVSGTEMLHLAVLHSRKLCVYSVSGTLGNVEHGNQCQMKLMYEHNLQRTACNMTYGSFGGVKGRDLICIQSMDGMLMVFEQESYAFGRFLPGFLLPGPLAYSSRTDSFLTVSSCQQVESYKYQVLAFATDADKRQETEQQKLGSGKRLVVDWTLNIGEQALDICIVSFNQSASSVFVLGERNFFCLKDNGQIRFMKKLDWSPSCFLPYCSVSEGTINTLIGNHNNMLHIYQDVTLKWATQLPHIPVAVRVGCLHDLKGVIVTLSDDGHLQCSYLGTDPSLFQAPNVQSRELNYDELDVEMKELQKIIKDVNKSQGVWPMTEREDDLNVSVVVSPNFDSVSQATDVEVGTDLVPSVTVKVTLQNRVILQKAKLSVYVQPPLELTCDQFTFEFMTPDLTRTVSFSVYLKRSYTPSELEGNAVVSYSRPTDRNPDGIPRVIQCKFRLPLKLICLPGQPSKTASHKITIDTNKSPVSLLSLFPGFASQSDDDQVNVMGFHFLGGARITVLASKTSQRYRIQSEQFEDLWLITNELILRLQEYFEKQGVKDFACSFSGSIPLQEYFELIDHHFELRINGEKLEELLSERAVQFRAIQRRLLARFKDKTPAPLQHLDTLLDGTYKQVIALADAVEENQGNLFQSFTRLKSATHLVILLIALWQKLSADQVAILEAAFLPLQEDTQELGWEETVDAAISHLLKTCLSKSSKEQALNLNSQLNIPKDTSQLKKHITLLCDRLSKGGRLCLSTDAAAPQTMVMPGGCTTIPESDLEERSVEQDSTELFTNHRHLTAETPRPEVSPLQGVSE
notes: BBS9, human, as NM_198428.2 (887 residues by the printed range 363-887); source: Hi5 insect cells (baculovirus); alone, purified, or co-expressed with other subunits
Turning to B4, the “stoichiometry N” value in series [31] worked out at 2.
